# Data from the supplement of paper PMC5998384.
# Legend:
# HeLa Kyoto [1] = test: solubility in G1/S (NP-40 vs SDS abundance) (log2 ratio); higher = more soluble; details: cell cycle stage: G1/S
# HeLa Kyoto [2] = test: melting temperature (median over replicates), in situ; higher = more thermally stable
# HeLa Kyoto [3] = test: solubility change mitosis vs G1/S (difference of NP-40 vs SDS log2 ratios) (log2 ratio difference); higher = more soluble in mitosis
# HeLa Kyoto [4] = test: thermal stability score vs G1/S (z-score of summed log2 fold changes over temperatures); higher = more thermally stable than in G1/S
# [5] = cell cycle stage: early G1 (4.5 h after nocodazole release)
# 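Throughout, for melting temperature (median over replicates), in situ: HeLa Kyoto cells synchronized by double thymidine or nocodazole block, proteins quantified by TMT10plex mass spectrometry, three independent biological replicates.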
# 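Throughout, for solubility change mitosis vs G1/S (difference of NP-40 vs SDS log2 ratios): synchronized HeLa Kyoto cells (double thymidine block for G1/S, nocodazole release for mitosis), protein amounts in NP-40 versus SDS lysates quantified by mass spectrometry, three biological replicates.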
# 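Throughout, for solubility in G1/S (NP-40 vs SDS abundance): HeLa Kyoto cells arrested at G1/S by double thymidine block, proteins quantified by TMT10plex mass spectrometry in mild NP-40 versus SDS extracts, three biological replicates.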
# 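Throughout, for thermal stability score vs G1/S (z-score of summed log2 fold changes over temperatures): synchronized HeLa Kyoto cells, proteins quantified by TMT10plex mass spectrometry, three biological replicates, mitosis taken 0.5 h after nocodazole release, G1/S directly after double thymidine block.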
sequence,measurement,setting,value
MTARGLALGLLLLLLCPAQVFSQSCVWYGECGIAYGDKRYNCEYSGPPKPLPKDGYDLVQELCPGFFFGNVSLCCDVRQLQTLKDNLQLPLQFLSRCPSCFYNLLNLFCELTCSPRQSQFLNVTATEDYVDPVTNQTKTNVKELQYYVGQSFANAMYNACRDVEAPSSNDKALGLLCGKDADACNATNWIEYMFNKDNGQAPFTITPVFSDFPVHGMEPMNNATKGCDESVDEVTAPCSCQDCSIVCGPKPQPPPPPAPWTILGLDAMYVIMWITYMAFLLVFFGAFFAVWCYRKRYFVSEYTPIDSNIAFSVNASDKGEASCCDPVSAAFEGCLRRLFTRWGSFCVRNPGCVIFFSLVFITACSSGLVFVRVTTNPVDLWSAPSSQARLEKEYFDQHFGPFFRTEQLIIRAPLTDKHIYQPYPSGADVPFGPPLDIQILHQVLDLQIAIENITASYDNETVTLQDICLAPLSPYNTNCTILSVLNYFQNSHSVLDHKKGDDFFVYADYHTHFLYCVRAPASLNDTSLLHDPCLGTFGGPVFPWLVLGGYDDQNYNNATALVITFPVNNYYNDTEKLQRAQAWEKEFINFVKNYKNPNLTISFTAERSIEDELNRESDSDVFTVVISYAIMFLYISLALGHMKSCRRLLVDSKVSLGIAGILIVLSSVACSLGVFSYIGLPLTLIVIEVIPFLVLAVGVDNIFILVQAYQRDERLQGETLDQQLGRVLGEVAPSMFLSSFSETVAFFLGALSVMPAVHTFSLFAGLAVFIDFLLQITCFVSLLGLDIKRQEKNRLDIFCCVRGAEDGTSVQASESCLFRFFKNSYSPLLLKDWMRPIVIAIFVGVLSFSIAVLNKVDIGLDQSLSMPDDSYMVDYFKSISQYLHAGPPVYFVLEEGHDYTSSKGQNMVCGGMGCNNDSLVQQIFNAAQLDNYTRIGFAPSSWIDDYFDWVKPQSSCCRVDNITDQFCNASVVDPACVRCRPLTPEGKQRPQGGDFMRFLPMFLSDNPNPKCGKGGHAAYSSAVNILLGHGTRVGATYFMTYHTVLQTSADFIDALKKARLIASNVTETMGINGSAYRVFPYSVFYVFYEQYLTIIDDTIFNLGVSLGAIFLVTMVLLGCELWSAVIMCATIAMVLVNMFGVMWLWGISLNAVSLVNLVMSCGISVEFCSHITRAFTVSMKGSRVERAEEALAHMGSSVFSGITLTKFGGIVVLAFAKSQIFQIFYFRMYLAMVLLGATHGLIFLPVLLSYIGPSVNKAKSCATEERYKGTERERLLNF [NPC1],solubility in G1/S (log2),HeLa Kyoto [1],-0.0136
same,melting temperature,HeLa Kyoto [2]; cell cycle stage: G1/S,58.3 °C
same,melting temperature,HeLa Kyoto [2]; cell cycle stage: mitosis,56.1 °C
same,solubility change mitosis (log2),HeLa Kyoto [3],-0.0644
same,thermal stability score,HeLa Kyoto [4]; [5],-3.38
same,thermal stability score,HeLa Kyoto [4]; cell cycle stage: mitosis,-3.22
MTDLVAVWDVALSDGVHKIEFEHGTTSGKRVVYVDGKEEIRKEWMFKLVGKETFYVGAAKTKATINIDAISGFAYEYTLEINGKSLKKYMEDRSKTTNTWVLHMDGENFRIVLEKDAMDVWCNGKKLETAGEFVDDGTETHFSIGNHDCYIKAVSSGKRKEGIIHTLIVDNREIPEIAS [FAIM],solubility in G1/S (log2),HeLa Kyoto [1],-0.00968
same,melting temperature,HeLa Kyoto [2]; cell cycle stage: G1/S,50.8 °C
same,melting temperature,HeLa Kyoto [2]; cell cycle stage: mitosis,49.1 °C
same,solubility change mitosis (log2),HeLa Kyoto [3],-0.25
same,thermal stability score,HeLa Kyoto [4]; [5],0.651
same,thermal stability score,HeLa Kyoto [4]; cell cycle stage: mitosis,1.16
MTDQENNNNISSNPFAALFGSLADAKQFAAIQKEQLKQQSDELPASPDDSDNSVSESLDEFDYSVAEISRSFRSQQEICEQLNINHMIQRIFLITLDNSDPSLKSGNGIPSRCVYLEEMAVELEDQDWLDMSNVEQALFARLLLQDPGNHLINMTSSTTLNLSADRDAGERHIFCYLYSCFQRAKEEITKVPENLLPFAVQCRNLTVSNTRTVLLTPEIYVDQNIHEQLVDLMLEAIQGAHFEDVTEFLEEVIEALILDEEVRTFPEVMIPVFDILLGRIKDLELCQILLYAYLDILLYFTRQKDMAKVFVEYIQPKDPTNGQMYQKTLLGVILSISCLLKTPGVVENHGYFLNPSRSSPQEIKVQEANIHQFMAQFHEKIYQMLKNLLQLSPETKHCILSWLGNCLHANAGRTKIWANQMPEIFFQMYASDAFFLNLGAALLKLCQPFCKPRSSRLLTFNPTYCALKELNDEERKIKNVHMRGLDKETCLIPAVQEPKFPQNYNLVTENLALTEYTLYLGFHRLHDQMVKINQNLHRLQVAWRDAQQSSSPAADNLREQFERLMTIYLSTKTAMTEPQMLQNCLNLQVSMAVLLVQLAIGNEGSQPIELTFPLPDGYSSLAYVPEFFADNLGDFLIFLRRFADDILETSADSLEHVLHFITIFTGSIERMKNPHLRAKLAEVLEAVMPHLDQTPNPLVSSVFHRKRVFCNFQYAPQLAEALIKVFVDIEFTGDPHQFEQKFNYRRPMYPILRYMWGTDTYRESIKDLADYASKNLEAMNPPLFLRFLNLLMNDAIFLLDEAIQYLSKIKIQQIEKDRGEWDSLTPEARREKEAGLQMFGQLARFHNIMSNETIGTLAFLTSEIKSLFVHPFLAERIISMLNYFLQHLVGPKMGALKVKDFSEFDFKPQQLVSDICTIYLNLGDEENFCATVPKDGRSYSPTLFAQTVRVLKKINKPGNMIMAFSNLAERIKSLADLQQQEEETYADACDEFLDPIMSTLMCDPVVLPSSRVTVDRSTIARHLLSDQTDPFNRSPLTMDQIRPNTELKEKIQRWLAERKQQKEQLE [UBE4A],solubility in G1/S (log2),HeLa Kyoto [1],-0.123
same,melting temperature,HeLa Kyoto [2]; cell cycle stage: G1/S,49.4 °C
same,melting temperature,HeLa Kyoto [2]; cell cycle stage: mitosis,50 °C
same,solubility change mitosis (log2),HeLa Kyoto [3],-0.0832
same,thermal stability score,HeLa Kyoto [4]; [5],-0.166
same,thermal stability score,HeLa Kyoto [4]; cell cycle stage: mitosis,0.519
MTEEACRTRSQKRALERDPTEDDVESKKIKMERGLLASDLNTDGDMRVTPEPGAGPTQGLLRATEATAMAMGRGEGLVGDGPVDMRTSHSDMKSERRPPSPDVIVLSDNEQPSSPRVNGLTTVALKETSTEALMKSSPEERERMIKQLKEELRLEEAKLVLLKKLRQSQIQKEATAQKPTGSVGSTVTTPPPLVRGTQNIPAGKPSLQTSSARMPGSVIPPPLVRGGQQASSKLGPQASSQVVMPPLVRGAQQIHSIRQHSSTGPPPLLLAPRASVPSVQIQGQRIIQQGLIRVANVPNTSLLVNIPQPTPASLKGTTATSAQANSTPTSVASVVTSAESPASRQAAAKLALRKQLEKTLLEIPPPKPPAPEMNFLPSAANNEFIYLVGLEEVVQNLLETQGRMSAATVLSREPYMCAQCKTDFTCRWREEKSGAIMCENCMTTNQKKALKVEHTSRLKAAFVKALQQEQEIEQRLLQQGTAPAQAKAEPTAAPHPVLKQVIKPRRKLAFRSGEARDWSNGAVLQASSQLSRGSATTPRGVLHTFSPSPKLQNSASATALVSRTGRHSERTVSAGKGSATSNWKKTPLSTGGTLAFVSPSLAVHKSSSAVDRQREYLLDMIPPRSIPQSATWK [GATAD2A],solubility in G1/S (log2),HeLa Kyoto [1],0.481
same,melting temperature,HeLa Kyoto [2]; cell cycle stage: G1/S,47.3 °C
same,melting temperature,HeLa Kyoto [2]; cell cycle stage: mitosis,50.4 °C
same,solubility change mitosis (log2),HeLa Kyoto [3],0.0452
same,thermal stability score,HeLa Kyoto [4]; [5],0.921
same,thermal stability score,HeLa Kyoto [4]; cell cycle stage: mitosis,3.21
